The text below walks through data of article PMC11601584, “The RNA receptor RIG-I binding synthetic oligodeoxynucleotide promotes pneumonia survival”.

For data set [1], the target named is T1, rhRIG-I (236-925), CARD-less (Homo sapiens, UniProt O95786 236-925).
T1 sequence: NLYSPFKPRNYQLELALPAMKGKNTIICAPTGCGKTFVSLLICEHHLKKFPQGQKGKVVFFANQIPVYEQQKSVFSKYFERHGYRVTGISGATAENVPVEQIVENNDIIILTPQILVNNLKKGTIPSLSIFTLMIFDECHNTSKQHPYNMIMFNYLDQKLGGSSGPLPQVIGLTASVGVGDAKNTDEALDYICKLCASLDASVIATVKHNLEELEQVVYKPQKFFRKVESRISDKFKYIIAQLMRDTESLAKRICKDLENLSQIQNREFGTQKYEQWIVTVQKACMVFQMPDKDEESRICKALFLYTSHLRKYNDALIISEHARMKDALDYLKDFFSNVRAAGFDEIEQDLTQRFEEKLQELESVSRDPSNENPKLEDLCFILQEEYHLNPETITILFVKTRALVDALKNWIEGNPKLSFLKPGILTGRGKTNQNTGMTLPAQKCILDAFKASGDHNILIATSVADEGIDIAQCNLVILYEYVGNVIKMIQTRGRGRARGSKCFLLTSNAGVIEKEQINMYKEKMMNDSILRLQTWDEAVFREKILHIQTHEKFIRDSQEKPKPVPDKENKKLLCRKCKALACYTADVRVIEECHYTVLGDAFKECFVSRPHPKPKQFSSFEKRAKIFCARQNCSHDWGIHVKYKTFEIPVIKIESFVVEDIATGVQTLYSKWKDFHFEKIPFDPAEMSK
The data set can be described thus: fluorescence anisotropy; no nucleotide; 4 mM MgCl2; affinity similar to RNA, Kd only in figure; FP: 20 mM Hepes pH 7.5, 150 mM NaCl, 2 mM TCEP, 4 mM MgCl2, 5% glycerol, 25 C, 2.5 nM labeled oligo; EMSA: 30 min on ice, 6% native gel, 0.5x TBE. Conditions: protein: recombinant; tags: N-terminal His-tag, removed by TEV; label: 5' FAM; 25-mer described as palindromic; partly self-complementary.

Data set [2] concerns the target T1, rhRIG-I (236-925), CARD-less. The data set can be described thus: fluorescence anisotropy; no nucleotide; 4 mM MgCl2; Kd only in figure; FP: 20 mM Hepes pH 7.5, 150 mM NaCl, 2 mM TCEP, 4 mM MgCl2, 5% glycerol, 25 C, 2.5 nM labeled oligo; EMSA: 30 min on ice, 6% native gel, 0.5x TBE. Conditions: protein: recombinant; tags: N-terminal His-tag, removed by TEV; label: 5' FAM on strand 1; blunt.

Data set [3] has the same target. Kind of data set: EMSA; ODN stock 2.5 uM, protein 0-32 uM, on ice; FP: 20 mM Hepes pH 7.5, 150 mM NaCl, 2 mM TCEP, 4 mM MgCl2, 5% glycerol, 25 C, 2.5 nM labeled oligo; EMSA: 30 min on ice, 6% native gel, 0.5x TBE. The note with it: protein: recombinant; tags: N-terminal His-tag, removed by TEV; 25-mer described as palindromic; partly self-complementary.

As for TCGTCGTCGTTCGAACGACGTTGAT (ssDNA, complete phosphorothioate backbone) [ODN M362, FAM], in data set [1], the binding result is given as “binds”.

B1: 12-mer 5'ppp dsRNA (dsRNA)
RNA 1: CAUGUGGAGCCC
RNA 2: GGGCUCCACAUG
modifications: 5' triphosphate on strand 2
As for B1, the binding result in data set [2] was “binds”.

Turning to TCGTCGTCGTTCGAACGACGTTGAT (ssDNA, complete phosphorothioate backbone) [ODN M362, biotinylated], the binding result in data set [3] is “binds”.
